Assay: western blot, endogenous PD-L1 in RBMS1-depleted MDA-MB-231, ±IFN-γ
Details: glycan lost; control: untreated

PD-L1 (programmed death ligand 1; B7-H1, CD274): tunicamycin
other: dependence of PD-L1 protein level on RBMS1: abolishes

From PMC9613699
